Source: the supplement of paper PMC10065799, “High-throughput profiling of sequence recognition by tyrosine kinases and SH2 domains using bacterial peptide display” (eLife, 2023)

Experiments:
AncSZ = assay: phosphorylation enrichment, bacterial display (enrichment ratio); higher = better substrate or ligand; peptides without Tyr show the background
EPHB1 = EPHB1 (UniProt P54762); assay: as above
EPHB2 = EPHB2 (UniProt P29323); assay: as above
FGFR1 = FGFR1 (UniProt P11362); assay: as above
FGFR3 = FGFR3 (UniProt P22607); assay: as above
Fer (mouse) = assay: as above
Fes = Fes (UniProt P07332); assay: as above
Fyn = Fyn (UniProt P06241); assay: as above
Hck = Hck (UniProt P08631); assay: as above
Jak2 = Jak2 (UniProt O60674); assay: as above
MERTK = MERTK (UniProt Q12866); assay: as above
c-Abl (mouse) = assay: as above
c-Src = assay: as above
Grb2 SH2 = Grb2 SH2 (UniProt P62993); assay: SH2 binding enrichment of the phosphorylated peptide, bacterial display (enrichment ratio); higher = better substrate or ligand; peptides without Tyr show the background
SHP2-C SH2 = assay: as above
c-Src SH2 = assay: as above
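For SH2 binding enrichment of the phosphorylated peptide, bacterial display in this document: peptide library displayed on the E. coli surface as eCPX fusions, selected cells deep-sequenced, score is each peptide's frequency after selection divided by its frequency in the input.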
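For phosphorylation enrichment, bacterial display in this document: 11-residue human phosphosite peptides and single-mutation variants displayed on the E. coli surface, counted by deep sequencing, each peptide's frequency after selection divided by its frequency in the unselected input library; frequency after pTyr selection over input frequency; kinase dosed for 20-30% of maximal phosphorylation in three min.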

Sequence of Fes (P07332 whole entry, looked up): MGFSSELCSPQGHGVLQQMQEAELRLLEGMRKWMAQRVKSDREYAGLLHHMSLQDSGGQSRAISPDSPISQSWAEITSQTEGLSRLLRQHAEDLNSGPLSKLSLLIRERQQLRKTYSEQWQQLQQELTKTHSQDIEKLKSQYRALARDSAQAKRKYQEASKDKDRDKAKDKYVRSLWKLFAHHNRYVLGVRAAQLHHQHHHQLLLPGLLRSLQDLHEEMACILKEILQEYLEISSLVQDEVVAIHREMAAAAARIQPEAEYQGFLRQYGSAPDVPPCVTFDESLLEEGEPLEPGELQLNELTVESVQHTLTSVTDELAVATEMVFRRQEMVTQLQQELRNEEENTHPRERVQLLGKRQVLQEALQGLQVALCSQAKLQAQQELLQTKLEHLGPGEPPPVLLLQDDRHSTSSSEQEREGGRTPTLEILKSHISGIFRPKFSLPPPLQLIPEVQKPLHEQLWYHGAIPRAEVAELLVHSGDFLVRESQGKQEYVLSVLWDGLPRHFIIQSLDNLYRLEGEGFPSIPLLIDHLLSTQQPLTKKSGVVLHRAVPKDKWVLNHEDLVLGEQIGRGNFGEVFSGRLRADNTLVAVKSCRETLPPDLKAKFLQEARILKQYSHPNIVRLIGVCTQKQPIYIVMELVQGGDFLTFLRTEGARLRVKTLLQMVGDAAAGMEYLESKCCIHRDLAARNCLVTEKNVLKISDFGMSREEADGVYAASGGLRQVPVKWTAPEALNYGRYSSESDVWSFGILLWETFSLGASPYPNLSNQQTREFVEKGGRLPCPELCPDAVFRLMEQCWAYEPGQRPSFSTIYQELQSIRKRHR
Sequence of EPHB1 (P54762 whole entry, looked up): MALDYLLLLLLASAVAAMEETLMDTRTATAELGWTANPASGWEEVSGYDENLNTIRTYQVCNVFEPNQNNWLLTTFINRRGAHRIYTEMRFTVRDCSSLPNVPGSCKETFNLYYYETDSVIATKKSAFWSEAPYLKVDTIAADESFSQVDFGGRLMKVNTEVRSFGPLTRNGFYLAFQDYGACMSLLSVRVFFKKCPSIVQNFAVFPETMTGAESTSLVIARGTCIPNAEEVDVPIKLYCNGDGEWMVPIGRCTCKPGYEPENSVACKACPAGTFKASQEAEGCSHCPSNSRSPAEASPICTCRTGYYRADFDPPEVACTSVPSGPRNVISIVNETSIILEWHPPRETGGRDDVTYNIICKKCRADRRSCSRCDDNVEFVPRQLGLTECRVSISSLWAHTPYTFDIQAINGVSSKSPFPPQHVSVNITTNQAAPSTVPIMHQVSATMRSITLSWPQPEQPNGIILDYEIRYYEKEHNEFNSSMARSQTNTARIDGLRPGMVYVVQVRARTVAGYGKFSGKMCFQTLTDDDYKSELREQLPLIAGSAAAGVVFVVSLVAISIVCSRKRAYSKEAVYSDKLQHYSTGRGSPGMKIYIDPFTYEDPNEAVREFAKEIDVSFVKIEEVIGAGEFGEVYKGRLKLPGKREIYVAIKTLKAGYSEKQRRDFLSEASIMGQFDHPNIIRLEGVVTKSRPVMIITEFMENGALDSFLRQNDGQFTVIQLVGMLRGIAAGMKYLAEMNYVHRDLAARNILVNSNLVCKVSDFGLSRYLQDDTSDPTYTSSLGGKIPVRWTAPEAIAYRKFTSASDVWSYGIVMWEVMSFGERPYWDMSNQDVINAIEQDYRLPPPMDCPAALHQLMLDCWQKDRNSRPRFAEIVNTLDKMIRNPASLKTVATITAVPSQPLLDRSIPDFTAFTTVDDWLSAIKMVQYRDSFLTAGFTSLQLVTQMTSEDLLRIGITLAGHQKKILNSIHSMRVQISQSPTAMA
Sequence of Jak2 (O60674 whole entry, looked up): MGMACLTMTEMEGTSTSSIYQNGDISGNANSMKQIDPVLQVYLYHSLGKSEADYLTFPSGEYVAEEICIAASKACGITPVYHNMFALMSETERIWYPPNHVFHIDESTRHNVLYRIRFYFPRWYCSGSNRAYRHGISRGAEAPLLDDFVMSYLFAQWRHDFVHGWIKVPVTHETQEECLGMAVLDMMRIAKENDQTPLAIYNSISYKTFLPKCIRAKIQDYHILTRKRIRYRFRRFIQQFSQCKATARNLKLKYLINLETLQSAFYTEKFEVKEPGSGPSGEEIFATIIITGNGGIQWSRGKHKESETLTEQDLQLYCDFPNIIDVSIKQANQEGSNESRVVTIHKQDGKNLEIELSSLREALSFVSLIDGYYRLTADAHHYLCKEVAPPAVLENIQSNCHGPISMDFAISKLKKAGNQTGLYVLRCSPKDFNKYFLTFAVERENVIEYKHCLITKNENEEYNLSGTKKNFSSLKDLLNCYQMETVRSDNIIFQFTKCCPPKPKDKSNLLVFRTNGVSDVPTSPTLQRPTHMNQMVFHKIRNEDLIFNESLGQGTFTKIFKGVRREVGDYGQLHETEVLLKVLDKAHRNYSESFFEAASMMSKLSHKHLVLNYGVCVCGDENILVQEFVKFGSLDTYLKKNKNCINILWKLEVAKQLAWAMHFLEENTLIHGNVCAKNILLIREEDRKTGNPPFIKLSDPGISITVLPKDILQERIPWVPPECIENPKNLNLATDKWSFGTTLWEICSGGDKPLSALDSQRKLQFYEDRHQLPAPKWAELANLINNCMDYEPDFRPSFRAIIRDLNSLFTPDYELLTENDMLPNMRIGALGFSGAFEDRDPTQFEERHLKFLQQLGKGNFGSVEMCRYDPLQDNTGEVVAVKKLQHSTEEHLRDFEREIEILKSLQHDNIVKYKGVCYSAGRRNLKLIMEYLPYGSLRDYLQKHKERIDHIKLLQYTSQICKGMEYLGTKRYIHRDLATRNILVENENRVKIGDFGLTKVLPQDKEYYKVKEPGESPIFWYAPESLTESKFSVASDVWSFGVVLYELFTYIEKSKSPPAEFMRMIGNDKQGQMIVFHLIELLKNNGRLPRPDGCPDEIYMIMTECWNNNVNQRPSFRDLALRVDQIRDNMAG
Sequence of Fyn (P06241 whole entry, looked up): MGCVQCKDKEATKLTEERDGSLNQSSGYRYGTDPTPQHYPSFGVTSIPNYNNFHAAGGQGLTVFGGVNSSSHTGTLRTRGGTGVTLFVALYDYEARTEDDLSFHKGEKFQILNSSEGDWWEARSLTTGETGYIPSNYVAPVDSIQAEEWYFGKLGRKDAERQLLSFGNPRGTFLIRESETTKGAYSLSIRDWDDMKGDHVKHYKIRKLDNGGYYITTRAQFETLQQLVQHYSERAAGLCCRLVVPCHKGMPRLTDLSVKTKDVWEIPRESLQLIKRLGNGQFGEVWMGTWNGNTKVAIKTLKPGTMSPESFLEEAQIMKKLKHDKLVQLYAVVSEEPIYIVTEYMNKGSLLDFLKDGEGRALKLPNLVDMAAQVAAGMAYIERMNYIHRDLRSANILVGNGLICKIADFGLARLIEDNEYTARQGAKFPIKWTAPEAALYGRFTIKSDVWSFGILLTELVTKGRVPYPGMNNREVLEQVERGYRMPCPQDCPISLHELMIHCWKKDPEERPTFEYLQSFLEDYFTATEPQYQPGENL
Sequence of Hck (P08631 whole entry, looked up): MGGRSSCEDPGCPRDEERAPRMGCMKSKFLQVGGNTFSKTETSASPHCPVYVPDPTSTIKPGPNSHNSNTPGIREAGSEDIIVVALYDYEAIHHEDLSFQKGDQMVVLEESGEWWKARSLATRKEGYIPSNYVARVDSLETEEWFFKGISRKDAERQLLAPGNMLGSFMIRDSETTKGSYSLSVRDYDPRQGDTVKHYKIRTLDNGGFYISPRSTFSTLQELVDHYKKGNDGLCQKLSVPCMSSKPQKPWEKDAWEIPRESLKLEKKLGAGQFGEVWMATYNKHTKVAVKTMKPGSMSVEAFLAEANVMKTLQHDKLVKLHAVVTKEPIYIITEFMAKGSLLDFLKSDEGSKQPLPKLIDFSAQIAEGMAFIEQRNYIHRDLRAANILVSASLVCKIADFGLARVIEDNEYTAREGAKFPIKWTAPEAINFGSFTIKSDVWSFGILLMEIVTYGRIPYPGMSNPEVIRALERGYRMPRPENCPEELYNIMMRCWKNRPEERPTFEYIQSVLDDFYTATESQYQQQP
Sequence of FGFR1 (P11362 whole entry, looked up): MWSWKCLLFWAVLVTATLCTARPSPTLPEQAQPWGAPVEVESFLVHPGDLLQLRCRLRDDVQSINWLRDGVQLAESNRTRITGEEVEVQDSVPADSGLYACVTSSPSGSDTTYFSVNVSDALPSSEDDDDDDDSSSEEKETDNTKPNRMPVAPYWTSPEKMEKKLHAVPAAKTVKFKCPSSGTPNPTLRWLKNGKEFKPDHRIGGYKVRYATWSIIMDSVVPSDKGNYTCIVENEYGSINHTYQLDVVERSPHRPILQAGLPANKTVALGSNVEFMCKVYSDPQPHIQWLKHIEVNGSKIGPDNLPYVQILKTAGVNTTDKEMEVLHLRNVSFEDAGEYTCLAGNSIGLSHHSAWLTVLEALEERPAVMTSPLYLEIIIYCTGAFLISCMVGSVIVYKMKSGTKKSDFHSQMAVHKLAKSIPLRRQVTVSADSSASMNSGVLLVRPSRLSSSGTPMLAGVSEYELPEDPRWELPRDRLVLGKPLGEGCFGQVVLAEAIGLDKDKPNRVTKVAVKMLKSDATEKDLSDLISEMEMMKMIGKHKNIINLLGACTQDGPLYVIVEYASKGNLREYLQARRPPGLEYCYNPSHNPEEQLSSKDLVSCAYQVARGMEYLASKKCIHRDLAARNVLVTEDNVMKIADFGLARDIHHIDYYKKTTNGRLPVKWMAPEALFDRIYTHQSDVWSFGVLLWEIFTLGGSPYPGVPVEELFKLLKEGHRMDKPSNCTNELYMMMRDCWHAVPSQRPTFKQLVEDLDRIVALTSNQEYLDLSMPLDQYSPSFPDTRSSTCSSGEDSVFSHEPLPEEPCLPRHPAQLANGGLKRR

SH2 binding enrichment (Grb2 SH2)	SH2 binding enrichment (SHP2-C SH2)	SH2 binding enrichment (c-Src SH2)	Sequence	phosphorylation enrichment (AncSZ)	phosphorylation enrichment (EPHB1)	phosphorylation enrichment (EPHB2)	phosphorylation enrichment (FGFR1)	phosphorylation enrichment (FGFR3)	phosphorylation enrichment (Fer (mouse))	phosphorylation enrichment (Fes)	phosphorylation enrichment (Fyn)	phosphorylation enrichment (Hck)	phosphorylation enrichment (Jak2)	phosphorylation enrichment (MERTK)	phosphorylation enrichment (c-Abl (mouse))	phosphorylation enrichment (c-Src)
1.01	0.956	0.742	KPPFSYNALIR [FOXG1_Y186_M191R]	0.695	0.478	0.55	0.505	0.519	0.446	0.807	0.482	0.53	0.618	0.477	0.565	0.504
0.959	0.583	0.766	KSSDVYVSYDC [SORL1_Y136_Y141C]	1.22	0.866	0.993	1.52	1.35	0.663	1.13	4.79	1.87	0.934	0.611	0.772	3.82
1.05	1.06	0.589	KVDKEYEVRVR [GHR_Y226]	0.711	0.459	0.547	0.52	0.473	0.396	0.864	0.407	0.488	0.587	0.361	0.579	0.41
0.927	0.761	0.5	LDAFIYNAAVL [GRIN2A_Y730_D731N]	1.72	1.3	1.57	2.36	1.62	1.95	2.08	4.57	4.05	0.874	0.704	0.972	2.32
1.04	0.738	0.524	LEDDMYRKTCT [XPA_Y257]	2.07	1.15	1.03	1.24	1.67	1.37	2.56	1.78	0.984	1.56	0.848	1.17	0.624
1	1.11	0.538	LEIETDRRLLD [KRT12_Y429_Y429D]	2.31	1.13	1.03	1.35	1.4	1.06	3.18	1.29	1.08	2.8	0.93	2.64	1.41
0.826	0.65	0.498	LEIETYPRLLD [KRT12_Y429_R430P]	1.3	0.802	0.953	0.787	1.06	0.646	1.87	0.599	0.41	1.85	0.461	1.1	0.772
0.708	0.861	0.448	LESTLYESSVV [TRPV4_Y91]	1.94	1.41	1.35	1.31	1.47	9.02	2.34	1.26	1.6	2.15	1.21	1.45	1.83
0.995	0.557	0.637	LHSDHYSPSGR [TMPRSS12_Y23_Y19H]	1.79	0.431	0.672	0.485	0.871	0.746	0.585	0.778	0.851	0.414	0.617	0.569	0.503
0.844	0.714	0.426	LIDSSYLTRTA [GREB1L_Y1063]	0.748	0.43	0.746	0.507	0.44	0.905	0.668	0.571	0.425	0.651	0.527	0.634	0.489
1.52	1.17	0.763	LIHLHYIRRDY [BBS4_Y43_K46R]	0.952	0.334	0.526	0.417	0.759	0.41	0.773	0.389	0.47	0.562	0.524	0.524	0.388
1.09	0.906	0.744	LITTLYIGFLD [KCNQ1_Y267_G272D]	2.56	1.25	1.16	0.777	1.35	1.78	3.12	2.56	1.71	3.07	0.929	2.36	4.15

More lines, now with the values behind:

Sequence	SH2 binding enrichment (Grb2 SH2)	SH2 binding enrichment (SHP2-C SH2)	SH2 binding enrichment (c-Src SH2)	phosphorylation enrichment (AncSZ)	phosphorylation enrichment (EPHB1)	phosphorylation enrichment (EPHB2)	phosphorylation enrichment (FGFR1)	phosphorylation enrichment (FGFR3)	phosphorylation enrichment (Fer (mouse))	phosphorylation enrichment (Fes)	phosphorylation enrichment (Fyn)	phosphorylation enrichment (Hck)	phosphorylation enrichment (Jak2)	phosphorylation enrichment (MERTK)	phosphorylation enrichment (c-Abl (mouse))	phosphorylation enrichment (c-Src)
KQRSDYARELE [MYH3_Y1140]	1.01	0.859	0.512	0.636	0.38	0.435	0.331	0.481	0.358	0.789	0.417	0.393	0.596	0.38	0.625	0.362
KQVEQYMSFHK [HCN1_Y417]	0.782	0.583	0.524	0.833	0.528	0.555	0.49	0.54	0.413	0.754	1.49	3.62	0.687	0.384	0.691	1.45
KRIETYFSKNF [PLP1_Y50_L46R_YF]	0.949	0.51	0.559	0.703	0.43	0.417	0.516	0.532	0.46	0.874	0.499	0.47	0.723	0.395	0.752	0.467
KRISCYEASYQ [PFKFB3_Y194]	0.67	0.582	0.667	0.896	0.522	0.484	0.447	0.656	0.494	0.947	0.452	0.529	0.749	0.493	0.74	0.467
KRLDGYVLEGR [IGSF9_Y656]	0.791	0.518	0.856	0.585	0.356	0.417	0.43	0.44	0.323	0.67	0.441	0.447	0.426	0.385	0.496	0.321
KTDKKYLMIKE [BAG3_Y451_E455K]	0.897	0.836	0.499	0.64	0.426	0.439	0.423	0.526	0.373	0.877	0.368	0.368	0.636	0.408	0.616	0.392
KTDVRYRSLGG [DYSF_Y1858_H1857R]	0.898	0.634	0.383	0.446	0.333	0.312	0.372	0.472	0.414	0.472	0.35	0.314	0.553	0.346	0.473	0.368
KTTGGYAGGLS [KRT8_Y419_S417G]	0.853	0.575	0.416	0.506	0.34	0.473	0.454	0.422	0.419	0.592	0.413	0.454	0.701	0.523	0.649	0.583
KVPELYEIHKE [BCR_Y554]	0.996	0.751	0.701	1.03	0.93	0.868	0.593	0.817	0.976	1.08	0.631	0.853	0.766	0.619	0.714	0.603
LARDMDDKEYY [MET_Y1230_Y1230D]	0.742	0.716	0.759	1.87	0.828	1.13	0.867	1.19	0.643	1.64	0.691	0.723	1.37	0.489	1.2	0.531
LATINYPFEKG [NDUFS8_Y84_P79L]	1.09	0.628	0.557	0.827	0.565	0.484	0.503	0.576	0.5	0.914	0.421	0.401	0.642	0.377	0.64	0.467
LEIETYRRLRD [KRT12_Y429_L433R]	0.754	0.725	0.471	0.859	0.533	0.559	0.645	0.809	0.351	1.25	0.658	0.674	1.23	0.834	0.659	0.672
LFDPDYMKVIL [CYP4A22_Y104_YF]	0.775	0.564	0.392	1.76	1.42	1.43	1.5	1.44	1.2	4.91	0.675	0.759	1.23	0.502	0.958	0.675
LFMGDYVDRGF [PPP2CA_Y86_YF]	1.04	0.577	0.54	0.95	0.961	1.19	0.822	0.943	0.546	0.963	0.814	0.673	0.696	0.396	0.616	0.61
LGKLTYPVGFW [NTHL1_Y177_I176T]	0.904	1.02	0.478	2.42	1.12	1.65	1.31	1.48	1.32	2.06	1.14	1.23	2.04	0.889	1.32	1.35
LGQRIYQFIRS [DYRK1B_Y271_Q275R_YF]	1.38	1.07	2.21	1.3	9.19	2.54	1.39	1.21	5.51	1.19	1.86	6.17	0.887	6.97	0.98	2.83
LIGRRYDDPEV [HSPA9_Y128]	0.674	0.5	0.822	2.69	1.11	1.63	0.643	0.9	0.809	2.17	0.836	0.707	1.35	0.889	1.25	1.27
LITTLYISFLG [KCNQ1_Y267_G269S]	0.872	0.621	0.838	1.47	0.852	0.784	0.71	1.06	0.757	1.98	0.913	1.15	2.27	0.902	1.64	1.56
LITTPYIGFLG [KCNQ1_Y267_L266P]	0.781	2.18	0.492	0.834	0.449	0.5	0.616	0.641	0.667	1.35	0.782	0.473	0.983	0.554	0.528	1.35
LKFAIYFEVRE [LAMA2_Y1258_A1261V_YF]	0.877	1.11	0.653	1.65	0.652	0.483	0.556	1.08	0.932	1.72	0.414	0.569	2.52	0.808	1.74	0.831
LKGQVYILVRE [ASS1_Y359_G362V]	0.878	0.896	0.525	1.43	0.682	0.652	0.481	0.982	0.328	1.36	0.343	0.454	1.14	0.375	0.921	0.334
